Measurements: PMC5705180

Biological target: Recombinant human IGF-II R (CI-MPR), cation-independent mannose-6-phosphate receptor (human) (UniProt P11717)
Test: SPR

Kd [nM]	Substance
168	Phosphoglycoprotein 32: bovine ribonuclease B carrying the unnatural bis-M6P Man3GlcNAc2 glycan (from UniProt P61823 27-150) (enzyme)
28.9	Bis-phosphoglycoprotein 30: bovine ribonuclease B carrying a bis-M6P-Man6GlcNAc2 glycan at Asn-34 (from UniProt P61823 27-150) (enzyme)

Substance	Kd [nM]
Cyclic phosphoglycopeptide 34: HIV-1 ZM109 V1V2 cyclic peptide carrying two bis-M6P-Man6GlcNAc2 glycans at N160 and N173	2.35
